Results on 1 variant are retold here after publication PMC6826516 (2019).

B1: SmBiT-TAZ-Flag (TAZ aa 13-119), wild type [not stated] / LgBiT-TEAD1-Myc (TEAD1 aa 194-411), wild type [not stated] (parent complex)
chain 1: PGQQVIHVTQDLDTDLEALFNSVMNPKPSSWRKKILPESFFKEPDSGSHSRQSSTDSSGGHPGPRLAGGAQHVRSHSSPASLQLGTGAGAAGSPAQQHAHLRQQSYD
chain 2: RSIGTTKLRLVEFSAFLEQQRDPDSYNKHLFVHIGHANHSYSDPLLESVDIRQIYDKFPEKKGGLKELFGKGPQNAFFLVKFWADLNCNIQDDAGAFYGVTSQYESSENMTVTCSTKVCSFGKQVVEKVETEYARFENGRFVYRINRSPMCEYMINFIHKLKHLPEKYMMNSVLENFTILLVVTNRDTQETLLCMACVFEVSNSEHGAQHHIYRLVKD

In the assay the parent is B1. Nature of the assay: NanoBiT assay (split-luciferase biosensor) in lysates of transfected HEK293T cells; 48 h after transfection; equal amounts of each biosensor plasmid; read off a plot.
For the variant chain 1 W31A, chain 1 K34A, chain 1 L36A, chain 1 S39A, chain 1 F40A, chain 1 F41A, the response is ~430 fold over LgBiT-TEAD1 alone.
